Assay results published in patent publication US20230272029A1, “CO-AGONISTS AT GLP-1 AND GIP RECEPTORS SUITABLE FOR ORAL DELIVERY” (Novo Nordisk A/S, priority 2020, published 2023).
Starred links: 1 amine or outer side, 2 acyl side, 3 side chain; linkers in the order of their positions; H or OH if unused. Non-standard residues stand in square brackets, D forms with d. Groups on a side chain read outwards from the residue. No end group written: not given here. *: point of attachment. C18 diacid = O=C(O)CCCCCCCCCCCCCCCCC(=O)*; γGlu = O=C(O)[C@H](CCC(=O)[*:2])N[*:1]; εLys = N[C@@H](CCCCN[*:1])C(=O)[*:2]; Aib = CC(C)(N)C(=O)O

Key:
[1] = molecular target: human GLP-1 receptor (human, UniProt P43220 24-463); assay: cell-based or functional assay
[2] = molecular target: T1, human GIP receptor (human, UniProt P48546 22-466); assay: cell-based or functional assay
T1 sequence (looked up): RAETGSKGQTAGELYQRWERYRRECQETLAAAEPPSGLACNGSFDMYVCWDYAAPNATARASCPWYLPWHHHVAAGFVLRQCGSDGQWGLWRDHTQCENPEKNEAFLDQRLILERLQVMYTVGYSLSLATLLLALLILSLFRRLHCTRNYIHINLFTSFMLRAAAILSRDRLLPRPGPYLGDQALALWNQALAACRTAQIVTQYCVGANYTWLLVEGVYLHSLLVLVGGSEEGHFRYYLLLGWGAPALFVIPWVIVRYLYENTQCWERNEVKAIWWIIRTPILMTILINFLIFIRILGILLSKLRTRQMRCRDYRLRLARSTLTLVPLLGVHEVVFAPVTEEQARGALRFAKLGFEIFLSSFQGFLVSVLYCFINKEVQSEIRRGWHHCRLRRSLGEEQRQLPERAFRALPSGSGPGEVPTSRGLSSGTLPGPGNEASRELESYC

B1: Compound No. 29 (peptide)
peptide: Y[Aib]EGTFTSDYSILLEK([εLys-εLys-γGlu-C18 diacid])QAAQEFIEWLLAGGPSSGAPPPS-OH
modifications: N-terminus assumed
SMILES: CC[C@H](C)[C@H](NC(=O)[C@H](Cc1ccccc1)NC(=O)[C@H](CCC(=O)O)NC(=O)[C@H](CCC(N)=O)NC(=O)[C@H](C)NC(=O)[C@H](C)NC(=O)[C@H](CCC(N)=O)NC(=O)[C@H](CCCCNC(=O)[C@@H](N)CCCCNC(=O)[C@@H](N)CCCCNC(=O)CC[C@H](NC(=O)CCCCCCCCCCCCCCCCC(=O)O)C(=O)O)NC(=O)[C@H](CCC(=O)O)NC(=O)[C@H](CC(C)C)NC(=O)[C@H](CC(C)C)NC(=O)[C@@H](NC(=O)[C@H](CO)NC(=O)[C@H](Cc1ccc(O)cc1)NC(=O)[C@H](CC(=O)O)NC(=O)[C@H](CO)NC(=O)[C@@H](NC(=O)[C@H](Cc1ccccc1)NC(=O)[C@@H](NC(=O)CNC(=O)[C@H](CCC(=O)O)NC(=O)C(C)(C)NC(=O)[C@@H](N)Cc1ccc(O)cc1)[C@@H](C)O)[C@@H](C)O)[C@@H](C)CC)C(=O)N[C@@H](CCC(=O)O)C(=O)N[C@@H](Cc1c[nH]c2ccccc12)C(=O)N[C@@H](CC(C)C)C(=O)N[C@@H](CC(C)C)C(=O)N[C@@H](C)C(=O)NCC(=O)NCC(=O)N1CCC[C@H]1C(=O)N[C@@H](CO)C(=O)N[C@@H](CO)C(=O)NCC(=O)N[C@@H](C)C(=O)N1CCC[C@H]1C(=O)N1CCC[C@H]1C(=O)N1CCC[C@H]1C(=O)N[C@@H](CO)C(=O)O
Q: Which results are given for B1?
A: hGLP-1R, CRE Luc 0% HSA EC50 (pM) [1]: 16.8 pM; hGLP-1R, CRE Luc 1% HSA EC50 (pM) [1]: 378 pM; hGIPR, CRE Luc 0% HSA EC50 (pM) [2]: 3.8 pM; hGIPR, CRE Luc 1% HSA EC50 (pM) [2]: 102 pM

B2: Compound No. 30 (peptide)
peptide: Y[Aib]EGTFTSDYSILLEK([εLys-εLys-γGlu-C18 diacid])QAAHEFIEWLLAGGPSSGAPPPS-OH
modifications: N-terminus assumed
SMILES: CC[C@H](C)[C@H](NC(=O)[C@H](Cc1ccccc1)NC(=O)[C@H](CCC(=O)O)NC(=O)[C@H](Cc1c[nH]cn1)NC(=O)[C@H](C)NC(=O)[C@H](C)NC(=O)[C@H](CCC(N)=O)NC(=O)[C@H](CCCCNC(=O)[C@@H](N)CCCCNC(=O)[C@@H](N)CCCCNC(=O)CC[C@H](NC(=O)CCCCCCCCCCCCCCCCC(=O)O)C(=O)O)NC(=O)[C@H](CCC(=O)O)NC(=O)[C@H](CC(C)C)NC(=O)[C@H](CC(C)C)NC(=O)[C@@H](NC(=O)[C@H](CO)NC(=O)[C@H](Cc1ccc(O)cc1)NC(=O)[C@H](CC(=O)O)NC(=O)[C@H](CO)NC(=O)[C@@H](NC(=O)[C@H](Cc1ccccc1)NC(=O)[C@@H](NC(=O)CNC(=O)[C@H](CCC(=O)O)NC(=O)C(C)(C)NC(=O)[C@@H](N)Cc1ccc(O)cc1)[C@@H](C)O)[C@@H](C)O)[C@@H](C)CC)C(=O)N[C@@H](CCC(=O)O)C(=O)N[C@@H](Cc1c[nH]c2ccccc12)C(=O)N[C@@H](CC(C)C)C(=O)N[C@@H](CC(C)C)C(=O)N[C@@H](C)C(=O)NCC(=O)NCC(=O)N1CCC[C@H]1C(=O)N[C@@H](CO)C(=O)N[C@@H](CO)C(=O)NCC(=O)N[C@@H](C)C(=O)N1CCC[C@H]1C(=O)N1CCC[C@H]1C(=O)N1CCC[C@H]1C(=O)N[C@@H](CO)C(=O)O
Q: For B2, which “hGLP-1R, CRE Luc 0% HSA EC50 (pM)” value [1] is on record?
A: Its value is 7.3 pM.

Q: And the “hGLP-1R, CRE Luc 1% HSA EC50 (pM)” value [1]?
A: Its value is 268 pM.

Q: What about the “hGIPR, CRE Luc 0% HSA EC50 (pM)” value [2] of the same binder?
A: Its value is 3.2 pM.

Q: And the “hGIPR, CRE Luc 1% HSA EC50 (pM)” value [2]?
A: The value was 185 pM.

B3: Compound No. 41 (peptide)
peptide: Y[Aib]EGTFTSDYSK([εLys-εLys-γGlu-C18 diacid])YLEEQAAREFINWLLAGGPSSGAPPPS-OH
modifications: N-terminus assumed
SMILES: CC[C@H](C)[C@H](NC(=O)[C@H](Cc1ccccc1)NC(=O)[C@H](CCC(=O)O)NC(=O)[C@H](CCCNC(=N)N)NC(=O)[C@H](C)NC(=O)[C@H](C)NC(=O)[C@H](CCC(N)=O)NC(=O)[C@H](CCC(=O)O)NC(=O)[C@H](CCC(=O)O)NC(=O)[C@H](CC(C)C)NC(=O)[C@H](Cc1ccc(O)cc1)NC(=O)[C@H](CCCCNC(=O)[C@@H](N)CCCCNC(=O)[C@@H](N)CCCCNC(=O)CC[C@H](NC(=O)CCCCCCCCCCCCCCCCC(=O)O)C(=O)O)NC(=O)[C@H](CO)NC(=O)[C@H](Cc1ccc(O)cc1)NC(=O)[C@H](CC(=O)O)NC(=O)[C@H](CO)NC(=O)[C@@H](NC(=O)[C@H](Cc1ccccc1)NC(=O)[C@@H](NC(=O)CNC(=O)[C@H](CCC(=O)O)NC(=O)C(C)(C)NC(=O)[C@@H](N)Cc1ccc(O)cc1)[C@@H](C)O)[C@@H](C)O)C(=O)N[C@@H](CC(N)=O)C(=O)N[C@@H](Cc1c[nH]c2ccccc12)C(=O)N[C@@H](CC(C)C)C(=O)N[C@@H](CC(C)C)C(=O)N[C@@H](C)C(=O)NCC(=O)NCC(=O)N1CCC[C@H]1C(=O)N[C@@H](CO)C(=O)N[C@@H](CO)C(=O)NCC(=O)N[C@@H](C)C(=O)N1CCC[C@H]1C(=O)N1CCC[C@H]1C(=O)N1CCC[C@H]1C(=O)N[C@@H](CO)C(=O)O
Q: Which “hGLP-1R, CRE Luc 0% HSA EC50 (pM)” value [1] does the source give for B3 here?
A: Its value is 1.2 pM.

Q: And the “hGLP-1R, CRE Luc 1% HSA EC50 (pM)” value [1]?
A: Its value is 31.4 pM.

Q: What about the “hGIPR, CRE Luc 0% HSA EC50 (pM)” value [2] of the same binder?
A: Its value is 4.9 pM.

Q: And the “hGIPR, CRE Luc 1% HSA EC50 (pM)” value [2]?
A: Its value is 79.3 pM.

B4: Compound No. 3 (peptide)
peptide: Y[Aib]EGTFTSDYSYYLEK([εLys-εLys-γGlu-C18 diacid])QAAQEFVNWLLAGGPSSGAPPPS-NH2
modifications: N-terminus assumed
SMILES: CC(C)C[C@H](NC(=O)[C@H](CC(C)C)NC(=O)[C@H](Cc1c[nH]c2ccccc12)NC(=O)[C@H](CC(N)=O)NC(=O)[C@@H](NC(=O)[C@H](Cc1ccccc1)NC(=O)[C@H](CCC(=O)O)NC(=O)[C@H](CCC(N)=O)NC(=O)[C@H](C)NC(=O)[C@H](C)NC(=O)[C@H](CCC(N)=O)NC(=O)[C@H](CCCCNC(=O)[C@@H](N)CCCCNC(=O)[C@@H](N)CCCCNC(=O)CC[C@H](NC(=O)CCCCCCCCCCCCCCCCC(=O)O)C(=O)O)NC(=O)[C@H](CCC(=O)O)NC(=O)[C@H](CC(C)C)NC(=O)[C@H](Cc1ccc(O)cc1)NC(=O)[C@H](Cc1ccc(O)cc1)NC(=O)[C@H](CO)NC(=O)[C@H](Cc1ccc(O)cc1)NC(=O)[C@H](CC(=O)O)NC(=O)[C@H](CO)NC(=O)[C@@H](NC(=O)[C@H](Cc1ccccc1)NC(=O)[C@@H](NC(=O)CNC(=O)[C@H](CCC(=O)O)NC(=O)C(C)(C)NC(=O)[C@@H](N)Cc1ccc(O)cc1)[C@@H](C)O)[C@@H](C)O)C(C)C)C(=O)N[C@@H](C)C(=O)NCC(=O)NCC(=O)N1CCC[C@H]1C(=O)N[C@@H](CO)C(=O)N[C@@H](CO)C(=O)NCC(=O)N[C@@H](C)C(=O)N1CCC[C@H]1C(=O)N1CCC[C@H]1C(=O)N1CCC[C@H]1C(=O)N[C@@H](CO)C(N)=O
Q: What does the source list for B4?
A: hGLP-1R, CRE Luc 0% HSA EC50 (pM) [1]: 8.5 pM; hGLP-1R, CRE Luc 1% HSA EC50 (pM) [1]: 626 pM; hGIPR, CRE Luc 0% HSA EC50 (pM) [2]: 6.9 pM; hGIPR, CRE Luc 1% HSA EC50 (pM) [2]: 229 pM
